Source: patent publication CN113354737A (GUANGZHOU EXCELMAB BIOMEDICAL TECH CO LTD, dated 2021)
Where two headings read alike, the source gives them in different places.

T1: 重组人GPC3近膜端抗原 (human, UniProt P51654 524-563)
T1 construct: range 524-563
T1 chain (looked up): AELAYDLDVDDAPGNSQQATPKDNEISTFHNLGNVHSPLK

B1: 人源GPC3抗体10C7 (antibody, V domains shown)
VH: QVQLVQSGAEVKKPGASVKLSCKASGYTFTDYEMHWVKQTPGKGLKWIGALDPKTGDTAYAQKFQGRATLTADTSTDTAYMELSSLRSEDSAVYYCTRFYSYTYWGQGTLVTVSS
VL: DIVLTQSPLSLTVTPGEPASISCRSSESLVHSNGNTYLSWLQQRPGQPPRLLIYKISNRFSGVPDRFSGSGAGTDFTLKISRVEAEDVGVYYCTQATQFPYTFGQGTKVEIK
notes: also called 抗人GPC3抗体10C7
B2: 亲和力成熟变体5E11 (antibody, V domains shown)
VH: QVQLKQSGAELMKPGASVKISCKATGYTFSRYWIEWVKQRPGHGLEWIGEILPGSGSTSYNEKFKGKATFTADTSSNTAYMQLSSLTSEDSAVYYCARSARATYYFDYWGQGTTLTVSS
VL: DIQMTQTTSSLSASLGDRVTISCWASQDISNYLNWYQQKPDGTVKLLIYYTSTLHSGVPSRFSGSGSGTDYSLTISNLEQEDIATYFCQQGNALPYTFGGGTKLEIK
B3: 亲和力成熟变体7C6 (antibody, V domains shown)
VH: QVQLQQPGAELVKPGASVKLSCKASGYTFTTYYMYWVKQRPGQGLEWIGEINPSNGGTNFNEKFKSKATLTVDKSSSTAYMQLSSLTSEDSAVYYCTTFAYWGQGTLVTVSA
VL: DIVMTQSPSSLSASLGGKVTITCKASQDINKYIVWYQHKPGKGPRLLIHYTSILQPGIPSRFSGSGSGRDYSFSISNLEPEDIATYYCLQYDNLWTFGGGTKLEIK
B4: 亲和力成熟变体5A5 (antibody, V domains shown)
VH: QVQLQQSGTELVRPGASVKLSCKALGYTFTDYEMHWVKQTPVHGLEWIGAIHPGSGDTAYNQRFKGKATLTADKSSSTAYMEYSSLTSEDSAVYYCTRFYSYAYWGQGTLVTVSA
VL: DVVMTQTPLSLPVSLGDQASISCRSSQSLVHSNGNTYLQWYLQKPGQSPKLLIYKVSNRFSGVPDRFSGRGSGTDFTLKISRVEAEDLGVYFCSQSIYVPYTFGGGTKLEIK

What was measured:
Assay in all cases: ELISA, coated antigen, HRP anti-human IgG
重组人GPC3近膜端抗原 [1] = biological target: T1, 重组人GPC3近膜端抗原
重组人GPC3胞外区抗原 = biological target: T2, 重组人GPC3胞外区抗原 (human, UniProt P51654 25-559, limits assumed)
T2 construct: extracellular domain
T2 sequence (P51654 25-559 limits assumed): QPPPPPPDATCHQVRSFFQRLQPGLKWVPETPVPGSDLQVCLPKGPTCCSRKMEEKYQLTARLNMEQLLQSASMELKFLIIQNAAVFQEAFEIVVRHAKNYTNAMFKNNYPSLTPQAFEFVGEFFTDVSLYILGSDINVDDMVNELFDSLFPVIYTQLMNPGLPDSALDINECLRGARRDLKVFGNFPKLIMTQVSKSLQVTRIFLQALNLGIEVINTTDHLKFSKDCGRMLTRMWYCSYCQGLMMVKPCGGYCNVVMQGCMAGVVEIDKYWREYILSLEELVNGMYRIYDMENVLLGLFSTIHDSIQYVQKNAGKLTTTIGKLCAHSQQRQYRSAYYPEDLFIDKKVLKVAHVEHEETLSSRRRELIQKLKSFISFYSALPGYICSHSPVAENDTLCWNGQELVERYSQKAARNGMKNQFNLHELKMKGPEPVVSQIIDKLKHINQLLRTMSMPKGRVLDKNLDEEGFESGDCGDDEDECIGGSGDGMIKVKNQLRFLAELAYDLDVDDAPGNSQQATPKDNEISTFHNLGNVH

重组人GPC3近膜端抗原 [2] = biological target: T1, 重组人GPC3近膜端抗原
重组人GPC3近膜端抗原 [3] = biological target: T1, 重组人GPC3近膜端抗原

Row | Molecule | EC50 (重组人GPC3近膜端抗原 [1]) [µg/mL] | EC50 (重组人GPC3胞外区抗原) [µg/mL] | EC50 (重组人GPC3近膜端抗原 [2]) [µg/mL] | EC50 (重组人GPC3近膜端抗原 [3]) [µg/mL]
1 | GC33单抗模拟物 (antibody) | 0.063 | – | – | –
2 | B1 | – | 0.0836 | 0.0279 | 0.141
3 | B2 | – | – | – | 0.12
4 | B3 | – | – | – | 0.0428
5 | B4 | – | – | – | 0.0951
